Reference: patent US20190085055A1

Key:
[1] = biological target: D3H44 light chain Q160K_T178R (Table 8); assay: LCCA (SPR), competitor L1 Q124E_Q160E_T178D
[2] = biological target: D3H44 light chain Q160K_T178R (Table 8); assay: LCCA: H1 co-expressed with L1 and L2, SPR read-out of light chain tags; competing chain L1
[3] = biological target: D3H44 light chain Q124E_Q160E_T178D; assay: LCCA: H1 co-expressed with L1 and L2, SPR read-out of light chain tags; competing chain L2
[4] = biological target: D3H44 light chain Q124E_Q160E_T178D; assay: LCCA (SPR), competitor L2 Q160K_T178R
[5] = biological target: D3H44 light chain Q124E_Q160E_T178D; assay: LCCA: H2 co-expressed with L1 and L2, SPR read-out of light chain tags; competing chain L2
[6] = biological target: D3H44 light chain Q160K_T178R (Table 8); assay: LCCA: H2 co-expressed with L1 and L2, SPR read-out of light chain tags; competing chain L1
D3H44 light chain Q38R [7] = assay: LCCA (SPR), competitor L1 Q38D
D3H44 light chain Q38R [8] = assay: LCCA (SPR), competitor L2 Q38D
D3H44 light chain Q38R [9] = assay: LCCA: H2 co-expressed with L1 and L2, SPR read-out of light chain tags; competing chain L2
D3H44 light chain F98A = assay: LCCA (SPR), competitor L1 Q38E
D3H44 light chain Q38R [10] = assay: LCCA (SPR), competitor L1 Q38E

Q: “D3H44 heavy chain (Fab format) D146G_Q179R” was tested. Which H1 L2 of H1 L1:H1 L2 (screen) [1] did it give?
A: The H1 L2 of H1 L1:H1 L2 (screen) was 1.4.

Q: And the H1 L2 of H1 L1:H1 L2 (verification) [1]?
A: Its H1 L2 of H1 L1:H1 L2 (verification) is 0.9.

Q: What about the H1 Readout (H1-L2) [2] of the same substance?
A: Its H1 Readout (H1-L2) is 1.

Q: And the H1 Readout (H1-L1) [3]?
A: The H1 Readout (H1-L1) was 93.

Q: What about the H1 L1 of H1 L1:H1 L2 (screen) [4] of the same substance?
A: The H1 L1 of H1 L1:H1 L2 (screen) was 86.7.

Q: What about the H1 L1 of H1 L1:H1 L2 (verification) [4] of the same substance?
A: The H1 L1 of H1 L1:H1 L2 (verification) was 97.

Q: What does the source list for “D3H44 heavy chain (Fab format) K145T_Q179D_S188L”?
A: H2 L2 of H2 L2:H2 L1 (screen) [1]: 71; H2 L2 of H2 L2:H2 L1 (verification) [1]: 74.3; H2 Readout (H2-L1) [5]: 24; H2 Readout (H2-L2) [6]: 83; H2 L1 of H2 L2:H2 L1 (screen) [4]: 7.2; H2 L1 of H2 L2:H2 L1 (verification) [4]: 20

Q: Which H1 L2 of H1 L1:H1 L2 (screen) (D3H44 light chain Q38R [7]) does the source give for D3H44 heavy chain (Fab format) Q39R here?
A: Its H1 L2 of H1 L1:H1 L2 (screen) is 10.8.

Q: What about the H2 L1 of H2 L2:H2 L1 (verification) (D3H44 light chain Q38R [8]) of the same substance?
A: The H2 L1 of H2 L2:H2 L1 (verification) was 11.1.

Q: What about the H2 Readout (H2-L1) (D3H44 light chain Q38R [9]) of the same substance?
A: The H2 Readout (H2-L1) was 1.

Q: What about the H1 L2 of H1 L1:H1 L2 (screen) (D3H44 light chain F98A) of the same substance?
A: Its H1 L2 of H1 L1:H1 L2 (screen) is 4.3.

Q: And the H1 L2 of H1 L1:H1 L2 (verification) (D3H44 light chain F98A)?
A: The H1 L2 of H1 L1:H1 L2 (verification) was 4.

Q: And the H1 L2 of H1 L1:H1 L2 (screen) (D3H44 light chain Q38R [10])?
A: Its H1 L2 of H1 L1:H1 L2 (screen) is 22.7.

Q: What about the H1 L2 of H1 L1:H1 L2 (verification) (D3H44 light chain Q38R [10]) of the same substance?
A: The H1 L2 of H1 L1:H1 L2 (verification) was 8.4.
